Results taken from article PMC11202230, “The Improved Antineoplastic Activity of Thermophilic L-Asparaginase Tli10209 via Site-Directed Mutagenesis” (Biomolecules, 2024).
Where a chain is given by its changes, count along the chain named. Names may count otherwise.

B1: L-asparaginase Tli10209 (Thermococcus litoralis DSM 5473; D50G/T70A) (protein)
chain: MSEKRKLERRGAEDMKRILIIGTGGTIASAKTDAGFKSVLTIDEILEKAGIKLKNGYEIDTRNILNIDSALIQPEDWERIAKEVYKALEDYDGIVITHGTDTLAYTASMLTFMIRGINKPVVLTGSMRPVTEEESDAPRNLKAAIRFAMEDVSGIFVAFMDKIMLGCRTSKIRALGLNAFMSINYPDVAYVKGEEVIYNLPQKRFKPKGEPVLDTKYEPRVVFIRLTPGLDGNAIDALVKAGYRGIVLEGYGAGGIPYRKRDILSKIREITPQIPVVMTTQALYDGVDLTKYEVGRKALEAGIIPAKDMTKETTITKLMWALGHTKNVEEVKEIMHTNYADEIEG
B2: L-asparaginase Tli10209 (Thermococcus litoralis DSM 5473; K48L) (protein)
chain: B1 chain with K48L, G50D, A70T
B3: L-asparaginase Tli10209 (Thermococcus litoralis DSM 5473; T70A) (protein)
chain: B1 chain with G50D
B4: L-asparaginase Tli10209 (Thermococcus litoralis DSM 5473) (protein)
chain: B1 chain with G50D, A70T
B5: L-asparaginase Tli10209 (Thermococcus litoralis DSM 5473; F36Y/T70A) (protein)
chain: B1 chain with F36Y, G50D
B6: L-asparaginase Tli10209 (Thermococcus litoralis DSM 5473; K48L/T70A) (protein)
chain: B1 chain with K48L, G50D
B7: L-asparaginase Tli10209 (Thermococcus litoralis DSM 5473; F36Y) (protein)
chain: B1 chain with F36Y, G50D, A70T
B8: L-asparaginase Tli10209 (Thermococcus litoralis DSM 5473; D50G) (protein)
chain: B1 chain with A70T

substrate: NC(=O)C[C@H](N)C(=O)O; test: Nessler reagent assay of ammonia, Michaelis-Menten fit; type: biochemical, Thermococcus litoralis; details: pH 10, 80 °C, 0.5-18.0 mM L-asparagine, free enzyme
Excerpt: Nessler reagent assay of ammonia, Michaelis-Menten fit on L-asparaginase Tli10209

Protein	Km [mM]	kcat [s⁻¹]	kcat/Km [M⁻¹ s⁻¹]
B1	2.68	2050	764000
B2	9.62	5080	528000
B3	7.90	4150	525000
B4	6.78	2300	340000
B5	6.28	2930	466000
B6	6.65	2760	415000
B7	7.00	2500	357000
B8	9.03	3890	431000
